Columns and labels:
[1] = biological target: β-subunit of DNA polymerase III holoenzyme of E. coli (E. coli) (UniProt P0A988); experiment: SPR; BIAcore 2000, kinetic analysis at lower ligand densities (577 RU of immobilized β, 1036 RU of immobilized MucA’ on CM5); MucB in the mobile phase; BSA reference cell; apparent constants; data not shown
RecA = RecA (UniProt P0A7G6); experiment: SPR; another set of experiments; calculated KD for MucB and RecA; details not told
[2] = biological target: MucA’ protein (plasmid pKM101 (host species not stated)); experiment: SEC; Superdex 75 XK 16/60, 20 mM HEPES pH 7.4, 10% glycerol, 150 mM NaCl, 0.1 mM EDTA, 1 mM DTT; 1 ml of 2.5 mg/ml MucA’ applied; calibrated with protein standards

Chain of β-subunit of DNA polymerase III holoenzyme of E. coli (E. coli) (P0A988 whole entry): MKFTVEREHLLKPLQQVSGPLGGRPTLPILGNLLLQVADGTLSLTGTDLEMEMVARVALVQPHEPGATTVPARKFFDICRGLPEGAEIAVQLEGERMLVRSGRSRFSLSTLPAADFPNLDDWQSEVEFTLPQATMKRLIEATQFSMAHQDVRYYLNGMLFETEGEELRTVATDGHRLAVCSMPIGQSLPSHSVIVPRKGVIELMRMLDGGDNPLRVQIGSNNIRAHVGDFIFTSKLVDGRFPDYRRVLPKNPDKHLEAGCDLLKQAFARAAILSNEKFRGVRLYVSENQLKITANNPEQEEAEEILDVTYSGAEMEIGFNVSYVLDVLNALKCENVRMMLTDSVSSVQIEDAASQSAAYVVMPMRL
Chain of RecA (P0A7G6 whole entry): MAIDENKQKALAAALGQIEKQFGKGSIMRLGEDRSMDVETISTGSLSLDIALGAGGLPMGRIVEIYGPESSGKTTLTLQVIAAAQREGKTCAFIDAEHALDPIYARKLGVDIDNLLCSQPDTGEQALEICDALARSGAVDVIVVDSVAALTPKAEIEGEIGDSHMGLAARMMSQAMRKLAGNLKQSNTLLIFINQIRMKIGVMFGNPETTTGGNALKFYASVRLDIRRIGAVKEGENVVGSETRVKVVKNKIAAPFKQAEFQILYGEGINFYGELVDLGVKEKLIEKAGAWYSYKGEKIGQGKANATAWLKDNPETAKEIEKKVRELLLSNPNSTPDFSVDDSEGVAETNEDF

Row | Substance | Kd [1] | amount bound (RU) [1] | koff [1] | kon [1] | Kd (RecA) | stoichiometry N [2]
1 | MucB protein (from UniProt P07375 1-420) (enzyme) | 0.31 nM | 349 RU | 1.2e-05 s⁻¹ | 38700 M⁻¹ s⁻¹ | 2.41 nM | –
2 | MucA’ protein (natural protein) | – | – | – | – | – | 2

Reference: paper PMC6495647
